Common to all, as to experiment: purified protein
Common to all, as to assay type: biochemical, Botrytis aclada

Data set [1] concerns COc1cccc(OC)c1O. The note with it: pH 4.0, 100 mM citrate-phosphate, 30 °C, air-saturated, µ and ± signs lost in the table text (header reads M), apparent Km, also measured at pH 3, 5, 6.
Data set [2] relates to CCn1c(=NN=c2sc3cc(S(=O)(=O)O)ccc3n2CC)sc2cc(S(=O)(=O)O)ccc21. The note with it: pH 4.0, 100 mM citrate-phosphate, 30 °C, air-saturated, µ and ± signs lost in the table text (header reads M), apparent Km, also measured at pH 3, 5, 6.
Substrate in data set [3]: COc1cccc(OC)c1O
As to conditions: pH 4.0, 100 mM citrate-phosphate, 30 °C, air-saturated, apparent Km, also measured at pH 3, 5, 6.

Substrate in data set [4]: CCn1c(=NN=c2sc3cc(S(=O)(=O)O)ccc3n2CC)sc2cc(S(=O)(=O)O)ccc21
As to conditions: pH 4.0, 100 mM citrate-phosphate, 30 °C, air-saturated, µ and ± signs lost in the table text (header reads M), apparent Km, also measured at pH 3, 5, 6. The source holds these as a separate data set.

One may read the Km as the concentration of substrate that gives half-maximal velocity. Turning to “BaL (Botrytis aclada laccase) (Botrytis aclada; L536M)”, the Km worked out at 80.8 ± 2.7 µM in data set [1] and 19.3 ± 1.0 µM in data set [2].

B1: BaL (Botrytis aclada laccase) (Botrytis aclada) (protein)
chain: SCANSATSRSCWGEYSIDTNWYDVTPTGVTREYWLSVENSTITPDGYTRSAMTFNGTVPGPAIIADWGDNLIIHVTNNLEHNGTSIHWHGIRQLGSLEYDGVPGVTQCPIAPGDTLTYKFQVTQYGTTWYHSHFSLQYGDGLFGPLIINGPATADYDEDVGVIFLQDWAHESVFEIWDTARLGAPPALENTLMNGTNTFDCSASTDPNCVGGGKKFELTFVEGTKYRLRLINVGIDSHFEFAIDNHTLTVIANDLVPIVPYTTDTLLIGIGQRYDVIVEANAAADNYWIRGNWGTTCSTNNEAANATGILRYDSSSIANPTSVGTTPRGTCEDEPVASLVPHLALDVGGYSLVDEQVSSAFTNYFTWTINSSSLLLDWSSPTTLKIFNNETIFPTEYNVVALEQTNANEEWVVYVIEDLTGFGIWHPIHLHGHDFFIVAQETDVFNSDESPAKFNLVNPPRRDVAALPGNGYLAIAFKLDNPGSWLLHCHIAWHASEGLAMQFVESQSSIAVKMTDTAIFEDTCANWNAYTPTQLFAEDDSGI
notes: full-length cDNA expressed in secreted form in Pichia pastoris X33; 543 residues; kinetics on glycosylated enzyme
As to B1, the results for the Km in data set [3] and in data set [4] were 8.3 ± 0.7 µM and 14.0 ± 1.0 µM, respectively.

(Values after publication PMC4220974, “Effect of the L499M mutation of the ascomycetous Botrytis aclada laccase on redox potential and catalytic properties” (Acta Crystallographica Section D: Biological Crystallography, 2014).)
